Laboratory results published in PMC11395145, “The Archetypal Gamma-Core Motif of Antimicrobial Cys-Rich Peptides Inhibits H^+-ATPases in Target Pathogens” (International Journal of Molecular Sciences, 2024).

Assays:
[1] = tested on: P. aeruginosa cells; test: Oxygen consumption measurement (Clark-type electrode); format: cell-based, Pseudomonas aeruginosa; details: 5 × 10^6 cells/mL, peptides at IC50, piericidin A 32 μM, at least 30 min, 25 °C
Procedure: (§1) Figure 3 Effect of cellular respiration on the microbicidal activity of hLf γ-core-containing peptides. (A,C) Oxygen consumption was measured in C. albicans and P. aeruginosa cellular suspensions in the absence (control) or the presence of kaliocin-1 (Kal-1), Kdp15, or human lactoferrin (hLf), and piericidin A (positive control). (B,D) Effect of cellular respiration on the microbicidal activity of hLf γ-core-containing peptides. Cells (10^6 cells/mL) were pre-incubated (15 min, 37 °C) with 32 μM piericidin A and incubated for 90 min at 37 °C with the peptides hLf or BM2. The cell viability was determined by means of the plate counting method. The results are the mean ± SD from duplicates of at least three independent experiments. * p < 0.05, ** p < 0.01, and *** p < 0.001 were used.
(§2) C. albicans or P. aeruginosa cells were grown to the mid-logarithmic phase, washed twice in Tris buffer, and resuspended in the same buffer, as described in [9, 10]. Briefly, cells (5 × 10^6 cells/mL) were pre-incubated for 15 min at 37 °C with the peptides (IC50). […] Oxygen consumption was measured using a Clark-type oxygen electrode (Dual digital-model 20, Rank Brothers Ltd., Cambridge, UK) in a closed jacketed chamber maintained at 25 °C. […] The viability of the cells was determined at 30 min by removing aliquots from the oxygen chambers and plating the subsequent dilutions on SDA or TSA plates.

[2] = tested on: C. albicans cells; test: as above; format: cell-based, Candida albicans; details: 5 × 10^6 cells/mL, peptides at IC50, piericidin A 32 μM, at least 30 min, 25 °C
Procedure: as §1, §2

[3] = tested on: C. albicans cells; test: Cell membrane permeability assay (propidium iodide, flow cytometry); format: cell-based, Candida albicans; details: 90 min, 37 °C, range of concentrations, PI 9 μM
Procedure: (§3) To determine whether Kal-1 and Kdp15 exert a permeabilizing effect on fungal or bacterial membranes, the cellular influx of the fluorescent nucleic-acid-binding dye propidium iodide (PI) was assessed. As PI itself cannot permeate through an intact phospholipid bilayer, only permeabilized cells take up PI, resulting in DNA intercalation and fluorescence.
(§4) Flow cytometry was used to assess the ability of peptides to permeabilize plasma membranes of cells in incorporation of the DNA intercalating dye propidium iodide (PI). C. albicans or P. aeruginosa cells (10^6 cells/mL) in Tris buffer were incubated with two-fold serially diluted peptides for 90 min at 37 °C and subsequently reincubated with PI (9 μM, final concentration) for 5 min. The suspensions were centrifuged at 1100× g for 10 min and subsequently washed with Tris buffer to remove any unbound PI. The peptide Lfpep was used to disrupt the cytoplasmic membrane (positive control). Cell fluorescence was monitored using a Cytomics FC500 Flow Cytometer (Beckman Coulter Life Sciences, Indianapolis, IN, USA). The PI fluorescence was excited at a wavelength of 488 nm and emission was registered at 610 nm. For each treatment, 20,000 events were measured. Data were acquired and analyzed using CytExpert 2.1 software. Results were expressed as the percentage of PI-positive cells with respect to the unstained cells (control). […]

[4] = tested on: Candida albicans ATCC 10231; test: Microbicidal (spread-plate cell viability) assay, candidacidal activity; format: cell-based
Procedure: (§5) First, we tested the antimicrobial activity of Kal-1 and a shorter Kal-1-derived peptide (Kdp15), both containing the complete γ-core signature of human lactoferrin, against C. albicans and P. aeruginosa. Microbicidal (cidal) activity was determined after 90 min of incubation (37 °C; pH 7.4) with a range of concentrations of each hLf-derived peptide.
(§6) Figure 1 Cell viability and membrane permeabilization assays. C. albicans or P. aeruginosa (10^6 cells/mL) were incubated (90 min, 37 °C) with each peptide/protein at the indicated concentrations. Aliquots were plated on SDA or […], and colonies were counted after 24–48 h (C. albicans) or 24 h (P. aeruginosa). At each point, samples were stained with propidium iodide (PI) and intracellular PI incorporation, indicative of membrane permeabilization, was quantified by flow cytometry. The relative cell viability (blue lines) and cellular permeabilization (red lines) were calculated as the percentage of untreated cells. Human lactoferrin (hLf) and the peptide Lfpep were used as negative and positive controls of cellular permeabilization, respectively.
Microbial susceptibility to the peptides was determined in a spread-plate assay as described previously. Briefly, two-fold serially diluted peptides were incubated (37 °C) with approximately 10^6 cells/mL in Tris buffer (10 mM Tris-HCl, pH 7.4). After 90 min of incubation with the peptides, aliquots were removed and plated in duplicate on an appropriate agar plate for each species (SDA for C. albicans, TSA for P. aeruginosa). The plates were incubated for 24–48 h at 30 °C (C. albicans) or 24 h at 37 °C (P. aeruginosa) for enumeration. The cell viability values, expressed as colony forming units (CFUs), were determined relative to incubation without added peptides and represent the mean ± standard deviation (±SD) of at least three independent determinations. For inhibition assays, the cell suspensions were preincubated (15 min at 37 °C) with the corresponding inhibitors before the addition of peptides. […]

[5] = tested on: P. aeruginosa cells; test: Cell membrane permeability assay (propidium iodide, flow cytometry); format: cell-based, Pseudomonas aeruginosa; details: 90 min, 37 °C, range of concentrations, PI 9 μM
Procedure: as §3, §4

[6] = tested on: Pseudomonas aeruginosa 10145 (PAO1); test: Microbicidal (spread-plate cell viability) assay, pseudomonacidal activity; format: cell-based; details: Tris buffer with 50 mM KCl vs without
Procedure: as §5
as §6, with “Human lactoferrin (hLf) and the peptide Lfpep were used as negative and positive controls of cellular permeabilization, respectively.” left out
Microbial susceptibility to the peptides was determined in a spread-plate assay as described previously. […] The cell viability values, expressed as colony forming units (CFUs), were determined relative to incubation without added peptides and represent the mean ± standard deviation (±SD) of at least three independent determinations. […]

[7] = tested on: C. albicans cells; test: Measurement of intracellular ATP (BacTiter-Glo); format: cell-based, Candida albicans; details: C. albicans 10^6 cells/mL, candidacidal concentration, 90 min, 37 °C; BM2 0.25 μM
Procedure: Total ATP was measured by using the BacTiter-Glo^TM Microbial Cell Viability Assay (Promega Co., Madison, WI, USA) according to the manufacturer’s instructions. […] Aliquots (100 μL) were incubated (90 min at 37 °C) with kaliocin-1, Kdp15, or human lactoferrin and the BM2 peptide (positive control). One hundred microliters of incubation mix was transferred into a 96-well opaque white plate, mixed with an equal volume of the BacTiter-Glo reagent, and incubated for 15 min in the dark. The reagent used a thermostable luciferase to produce luminescence in an ATP-dependent manner. The emitted luminescence was detected by using a Varioskan Flash multimode reader (Thermo Scientific, Waltham, MA, USA) with a 10 s of shaking and 1 s integration time. A calibration curve was prepared for each experiment, with ATP standards ranging from 1 to 1000 nM. For assays performed in the presence of the BM2 peptide, samples were preincubated with 0.25 μM BM2 for 30 min at 37 °C. All the tests were performed in triplicate at least four times.

[8] = tested on: Pseudomonas aeruginosa 10145 (PAO1); details: used in control assays; cited from earlier work
Procedure: as §5, with “peptide. The hLf γ-core-containing peptides were microbicidal in a concentration-dependent way (Figure 1). […] The IC50 es ...” for “peptide.”

[9] = tested on: Candida albicans ATCC 10231; details: used in control assays; cited from earlier work
Procedure: as §5, with “peptide. The hLf γ-core-containing peptides were microbicidal in a concentration-dependent way (Figure 1). […] The IC50 es ...” for “peptide.”

B1: hLf: Recombinant human apo-lactoferrin, PM H^+-ATPase inhibitor control (protein, UniProt P02788 20-710, looked up)
Lactotransferrin: GRRRSVQWCAVSQPEATKCFQWQRNMRKVRGPPVSCIKRDSPIQCIQAIAENRADAVTLDGGFIYEAGLAPYKLRPVAAEVYGTERQPRTHYYAVAVVKKGGSFQLNELQGLKSCHTGLRRTAGWNVPIGTLRPFLNWTGPPEPIEAAVARFFSASCVPGADKGQFPNLCRLCAGTGENKCAFSSQEPYFSYSGAFKCLRDGAGDVAFIRESTVFEDLSDEAERDEYELLCPDNTRKPVDKFKDCHLARVPSHAVVARSVNGKEDAIWNLLRQAQEKFGKDKSPKFQLFGSPSGQKDLLFKDSAIGFSRVPPRIDSGLYLGSGYFTAIQNLRKSEEEVAARRARVVWCAVGEQELRKCNQWSGLSEGSVTCSSASTTEDCIALVLKGEADAMSLDGGYVYTAGKCGLVPVLAENYKSQQSSDPDPNCVDRPVEGYLAVAVVRRSDTSLTWNSVKGKKSCHTAVDRTAGWNIPMGLLFNQTGSCKFDEYFSQSCAPGSDPRSNLCALCIGDEQGENKCVPNSNERYYGYTGAFRCLAENAGDVAFVKDVTVLQNTDGNNNEAWAKDLKLADFALLCLDGKRKPVTEARSCHLAMAPNHAVVSRMDKVERLKQVLLHQQAKFGRNGSDCPDKFCLFQSETKNLLFNDNTECLARLHGKTTYEKYLGPQYVAGITNLKKCSTSPLLEACEFLRK
modifications: apo form
oxygen consumption of P. aeruginosa in presence of the substance [1]: inability of the native protein hLf to inhibit
oxygen consumption of C. albicans in presence of the substance [2]: inability of the native protein hLf to inhibit
PI fluorescent cells (plasma membrane permeabilization), C. albicans [3]: not significantly increased
IC50 ([4]; 90 min, 37 °C, 10 mM Tris-HCl pH 7.4, 10^6 cells/mL, CFU plating, estimated, read-out: IC50 (concentration that caused 50% reduction in viable counts) against C. albicans): 3 µM
effect of high external K^+ on candidacidal activity ([4]; Tris buffer with 50 mM KCl vs without): seemed to protect
effect of Tok1p K^+ channel block (TEA^+) on candidacidal activity ([4]; cells pre-incubated 15 min with 10 mM TEA^+): less susceptible
PI fluorescent cells (plasma membrane permeabilization), P. aeruginosa [5]: not significantly increased
effect of high external K^+ on pseudomonacidal activity [6]: seemed to protect
increment in intracellular ATP (iATP) level compared to untreated control [7]: ~ 6 fold
previously reported microbicidal concentration against P. aeruginosa [8]: 1 µM
previously reported microbicidal concentration against C. albicans [9]: 5 µM
